Where no end group is shown, it is not given here. [ ]: non-standard residue; d: D form. pS = N[C@@H](COP(=O)(O)O)C(=O)O
Target: σ2 subunit of the AP2 core (σ2-adaptin 1-143) (mouse, UniProt P62743 1-142)
Assay: crystal structure

Chain of σ2 subunit of the AP2 core (σ2-adaptin 1-143) (P62743 whole entry, looked up, tested part not stated): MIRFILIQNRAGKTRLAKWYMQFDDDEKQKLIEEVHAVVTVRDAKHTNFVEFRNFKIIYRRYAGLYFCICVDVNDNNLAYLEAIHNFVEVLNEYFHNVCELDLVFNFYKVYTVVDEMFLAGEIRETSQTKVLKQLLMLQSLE

binding result: binds
B1: CD4 dileucine peptide RM(phosphoS)QIKRLLSE (Q peptide), as co-crystallised (peptide)
peptide: RM[pS]QIKRLLSE

— paper PMC4340503 (Nature, 2008)
